Data from patent US12194095B2, “Combinations and uses thereof” (Incyte Corporation, priority 2015, dated 2025).

Test system: MEC-1 cells
Assay: ADCC cytotoxicity (target cell killing) of MEC-1 cells with NK cells, MOR00208 and Idelalisib alone and in combination
Format: cell-based, human
Method: The cytotoxicity of MOR00208 and Idelalisib alone and in combination were tested in the MEC-1 cell line.
Idelalisib is a phosphoinositide 3-kinase inhibitor; more specifically, it blocks P110δ, the delta isoform of the enzyme phosphoinositide 3-kinase. […] MOR00208 targets CD19 and mediates target cell killing via ADCC.
The following were used as controls: a) MEC-1 cells+RefmAb33+DMSO+NK cells, b) MEC-1 cells+DMSO+NK cells, c) MEC-1 cells+DMSO.
Target cell killing was measured using the following parameters: Idelalisib at concentrations of 0.3, 1, 3 and 10 μM; MOR00208 at concentrations of 1.5, 0.015 and 0.0015 μg/ml and the combination of MOR00208 and Idelalisib at the same concentrations.
In the Idelalisib group, […] in the MOR00208+Idelalisib combination group, target cells were pre-treated with Idelalisib for 7 days prior to the ADCC assay measurements. The target cells were counted and stained using 10 μM CFSE end concentration. For DMSO treated target cells, an effector:target (E:T) ratio of 2:1 is chosen, corresponding to a cell density of 5×10^5/ml. The proliferative effect on target cells caused by Idelalisib treatment was included by adjusting the E:T ratio in inhibitor treated cells. The NK cells are counted and adjusted to 1×10^6/ml. The target cell killing assays were performed as follows: using 96 well plates, 100 μl of target cell suspension was added per well, followed by 100 μl cell suspension of NK cells to each well resulting in an E:T ratio of 2:1. The antibodies were diluted in a range of 10-0.00001 nM (corresponding to 1.5-0.0000015 μg/ml) in medium. Cells were centrifuged and target:effector cell-pellets were re-suspended in 100 μl antibody-containing medium or the according control solution. The assay was incubated for 4 h in CO2-incubator at 37° C. After 10 min incubation on ice, 50 μl DAPI solution was added to each well (final concentration 1 μg/ml) and incubated on ice for 10 min. The cell killing measurements were performed with FACS-Verse. Dead target cells were DAPI positive.
In total, six experiments were performed in order to determine the mediation of ADCC on MEC-1 cells by the combination of MOR00208 and Idelalisib. […] The autoreactivity of the NK cells prevented a proper analysis in those two experiments.
The % dead cells (raw data) from Tables 1-16 was analysed in the following way:
[formula] [formula] [formula] where A is the treatment with MOR00208 alone; B is the treatment with Idelalisib alone; C is response to the control DMSO+RefMab33; AB is the combination of treatments A and B.
In order to confirm the results of synergy as calculated using Clarke et al. above, the Combination Index (CI) method was applied to the % dead cells (raw data) of Tables 1-16. For CI calculations, we used 0.3, 1, 3 and 10 μM Idelalisib and three MOR208 concentrations (1.5, 0.015 and 0.0015 μg/ml).

B1: MOR00208: anti-CD19 antibody; variable domains in FIG. 1, Fc regions in FIG. 2 (antibody)
heavy: EVQLVESGGGLVKPGGSLKLSCAASGYTFTSYVMHWVRQAPGKGLEWIGYINPYNDGTKYNEKFQGRVTISSDKSISTAYMELSSLRSEDTAMYYCARGTYYYGTRVFDYWGQGTLVTVSSASTKGPSVFPLAPSSKSTSGGTAALGCLVKDYFPEPVTVSWNSGALTSGVHTFPAVLQSSGLYSLSSVVTVPSSSLGTQTYICNVNHKPSNTKVDKKVEPKSCDKTHTCPPCPAPELLGGPDVFLFPPKPKDTLMISRTPEVTCVVVDVSHEDPEVQFNWYVDGVEVHNAKTKPREEQFNSTFRVVSVLTVVHQDWLNGKEYKCKVSNKALPAPEEKTISKTKGQPREPQVYTLPPSREEMTKNQVSLTCLVKGFYPSDIAVEWESNGQPENNYKTTPPMLDSDGSFFLYSKLTVDKSRWQQGNVFSCSVMHEALHNHYTQKSLSLSPGK
light: DIVMTQSPATLSLSPGERATLSCRSSKSLQNVNGNTYLYWFQQKPGQSPQLLIYRMSNLNSGVPDRFSGSGSGTEFTLTISSLEPEDFAVYYCMQHLEYPITFGAGTKLEIKRTVAAPSVFIFPPSDEQLKSGTASVVCLLNNFYPREAKVQWKVDNALQSGNSQESVTEQDSKDSTYSLSSTLTLSKADYEKHKVYACEVTHQGLSSPVTKSFNRGEC
- % dead cells (Experiment 1, Idelalisib 0.3 μM, MOR00208 0.01 nM (0.0015 μg/ml)): 40.3%
- % dead cells (Experiment 1, Idelalisib 0.3 μM, MOR00208 0.1 nM (0.015 μg/ml)): 63.1%
- % dead cells (Experiment 1, Idelalisib 0.3 μM, MOR00208 10 nM (1.5 μg/ml)): 62.9%
- % dead cells (Experiment 1, Idelalisib 1 μM, MOR00208 0.01 nM (0.0015 μg/ml)): 40.3%
- % dead cells (Experiment 1, Idelalisib 1 μM, MOR00208 0.1 nM (0.015 μg/ml)): 63.1%
- % dead cells (Experiment 1, Idelalisib 1 μM, MOR00208 10 nM (1.5 μg/ml)): 62.9%
- % dead cells (Experiment 1, Idelalisib 3 μM, MOR00208 0.01 nM (0.0015 μg/ml)): 40.3%
- % dead cells (Experiment 1, Idelalisib 3 μM, MOR00208 0.1 nM (0.015 μg/ml)): 63.1%
- % dead cells (Experiment 1, Idelalisib 3 μM, MOR00208 10 nM (1.5 μg/ml)): 62.9%
- % dead cells (Experiment 1, Idelalisib 10 μM, MOR00208 0.01 nM (0.0015 μg/ml)): 40.3%
- % dead cells (Experiment 1, Idelalisib 10 μM, MOR00208 0.1 nM (0.015 μg/ml)): 63.1%
- % dead cells (Experiment 1, Idelalisib 10 μM, MOR00208 10 nM (1.5 μg/ml)): 62.9%
- % dead cells (Experiment 2, Idelalisib 0.3 μM, MOR00208 0.01 nM (0.0015 μg/ml)): 52.9%
- % dead cells (Experiment 2, Idelalisib 0.3 μM, MOR00208 0.1 nM (0.015 μg/ml)): 78.9%
- % dead cells (Experiment 2, Idelalisib 0.3 μM, MOR00208 10 nM (1.5 μg/ml)): 85.6%
- % dead cells (Experiment 2, Idelalisib 1 μM, MOR00208 0.01 nM (0.0015 μg/ml)): 52.9%
- % dead cells (Experiment 2, Idelalisib 1 μM, MOR00208 01 nM (0.015 μg/ml)): 78.9%
- % dead cells (Experiment 2, Idelalisib 1 μM, MOR00208 10 nM (1.5 μg/ml)): 85.6%
- % dead cells (Experiment 2, Idelalisib 3 μM, MOR00208 0.01 nM (0.0015 μg/ml)): 52.9%
- % dead cells (Experiment 2, Idelalisib 3 μM, MOR00208 0.1 nM (0.015 μg/ml)): 78.9%
- % dead cells (Experiment 2, Idelalisib 3 μM, MOR00208 10 nM (1.5 μg/ml)): 85.6%
- % dead cells (Experiment 2, Idelalisib 10 μM, MOR00208 0.01 nM (0.0015 μg/ml)): 52.9%
- % dead cells (Experiment 2, Idelalisib 10 μM, MOR00208 0.1 nM (0.015 μg/ml)): 78.9%
- % dead cells (Experiment 2, Idelalisib 10 μM, MOR00208 10 nM (1.5 μg/ml)): 85.6%
- % dead cells (Experiment 3, Idelalisib 0.3 μM, MOR00208 0.01 nM (0.0015 μg/ml)): 43.5%
- % dead cells (Experiment 3, Idelalisib 0.3 μM, MOR00208 0.1 nM (0.015 μg/ml)): 59.5%
- % dead cells (Experiment 3, Idelalisib 0.3 μM, MOR00208 10 nM (1.5 μg/ml)): 62.0%
- % dead cells (Experiment 3, Idelalisib 1 μM, MOR00208 0.01 nM (0.0015 μg/ml)): 43.5%
- % dead cells (Experiment 3, Idelalisib 1 μM, MOR00208 0.1 nM (0.015 μg/ml)): 59.5%
- % dead cells (Experiment 3, Idelalisib 1 μM, MOR00208 10 nM (1.5 μg/ml)): 62.0%
- % dead cells (Experiment 3, Idelalisib 3 μM, MOR00208 0.01 nM (0.0015 μg/ml)): 43.5%
- % dead cells (Experiment 3, Idelalisib 3 μM, MOR00208 0.1 nM (0.015 μg/ml)): 59.5%
- % dead cells (Experiment 3, Idelalisib 3 μM, MOR00208 10 nM (1.5 μg/ml)): 62.0%
- % dead cells (Experiment 3, Idelalisib 10 μM, MOR00208 0.01 nM (0.0015 μg/ml)): 43.5%
- % dead cells (Experiment 3, Idelalisib 10 μM, MOR00208 0.1 nM (0.015 μg/ml)): 59.5%
- % dead cells (Experiment 3, Idelalisib 10 μM, MOR00208 10 nM (1.5 μg/ml)): 62.0%
- % dead cells (Experiment 4, Idelalisib 0.3 μM, MOR00208 0.01 nM (0.0015 μg/ml)): 56.3%
- % dead cells (Experiment 4, Idelalisib 0.3 μM, MOR00208 0.1 nM (0.015 μg/ml)): 73.3%
- % dead cells (Experiment 4, Idelalisib 0.3 μM, MOR00208 10 nM (1.5 μg/ml)): 74.6%
- % dead cells (Experiment 4, Idelalisib 1 μM, MOR00208 0.01 nM (0.0015 μg/ml)): 56.3%
- % dead cells (Experiment 4, Idelalisib 1 μM, MOR00208 0.1 nM (0.015 μg/ml)): 73.3%
- % dead cells (Experiment 4, Idelalisib 1 μM, MOR00208 10 nM (1.5 μg/ml)): 74.6%
- % dead cells (Experiment 4, Idelalisib 3 μM, MOR00208 0.01 nM (0.0015 μg/ml)): 56.3%
- % dead cells (Experiment 4, Idelalisib 3 μM, MOR00208 0.1 nM (0.015 μg/ml)): 73.3%
- % dead cells (Experiment 4, Idelalisib 3 μM, MOR00208 10 nM (1.5 μg/ml)): 74.6%
- % dead cells (Experiment 4, Idelalisib 10 μM, MOR00208 0.01 nM (0.0015 μg/ml)): 56.3%
- % dead cells (Experiment 4, Idelalisib 10 μM, MOR00208 0.1 nM (0.015 μg/ml)): 73.3%
- % dead cells (Experiment 4, Idelalisib 10 μM, MOR00208 10 nM (1.5 μg/ml)): 74.6%
